The values that follow come from patent US20260265374A1 (JW THERAPEUTICS R AND D SHANGHAI, published 2026).

This experiment addresses T1, Soluble CD19 protein (amino acids 20-291) (UniProt P15391 20-291).
T1 construct: range 20-291; Analyte in SPR, 300 nM to 4.69 nM; also called cognate ligand CD19
T1 sequence (looked up): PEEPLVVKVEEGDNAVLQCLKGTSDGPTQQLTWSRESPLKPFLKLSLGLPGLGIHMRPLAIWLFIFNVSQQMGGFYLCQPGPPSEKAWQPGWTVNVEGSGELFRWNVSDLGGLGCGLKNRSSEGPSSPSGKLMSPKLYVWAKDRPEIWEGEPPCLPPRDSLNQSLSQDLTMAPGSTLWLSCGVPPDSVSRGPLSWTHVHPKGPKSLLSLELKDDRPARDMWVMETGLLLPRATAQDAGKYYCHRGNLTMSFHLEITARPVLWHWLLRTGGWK
The experiment in a line: SPR (Biacore T200), antibody captured on Protein A chip, soluble CD19 as analyte. As for the experimental part: All SPR experiments were performed on a Biacore T200 (PCytiva) with HBS-EP as running buffer. The antibodies were captured by Protein A chip (LOT #10309880, Cytiva). Soluble CD19 protein (amino acids 20-291) was used as the analyte at concentrations ranging from 300 nM to 4.69 nM through the flow cells for 120 seconds followed by dissociation analysis for 300 seconds. Association rates (Kon), dissociation rates (Koff) and the constant Ka (Kon/Koff) were fitted to the results.
(In general: Surface plasmon resonance follows binding to a sensor surface in real time, without labels.)

B1: Antibody comprising scFv-2 fused with human IgG1 Fc fragment (Fc fusion)
chain: DIQMTQTTSSLSASLGDRVTISCRASQDISKYLNWYQQRPDGTVKLLIYHTSRLHSGVPSRFSGSGSGTDYSLTISNLEPEDIATYFCQQGNTLPYTFGGGTKLEITGSTSGSGKPGSGEGSTKGEVKLQESGPGLVAPSQSLSVTCTVSGVSLPDYGVSWIRQPPRKGLEWLGVIWGSETTYYNSALKSRLTIIKDNSKSQVFLKMNSLQTDDTAIYYCAKHYYYGGSYAMDYWGQGTSVTVSS
notes: scFv fused with human IgG1 Fc; not shown: human IgG1 Fc fragment
As for B1, the binding result is listed as “binds”.

B2: Antibody comprising scFv-1 fused with human IgG1 Fc fragment (Fc fusion)
chain: DIQMTQTTSSLSASLGDRVTISCRASQDISKYLNWYQQRPDGTVKLLIYHTSRLHSGVPSRFSGSGSGTDYSLTISNLEPEDIATYFCQQGNTLPYTFGSGTRLEITGSTSGSGKPGSGEGSTKGEVKLQESGPGLVAPSQSLSVTCTVSGVSLPDYGVSWIRQPPRKGLEWLGVIWGSETTYYNSALKSRLTIIKDNSKSQVFLKMNSLQTDDTAIYYCAKHYYYGGSYAMDYWGQGTSVTVSS
notes: as for B1
B2: the binding result is “binds”.
